Experiments:
Test in all cases: cell-based or functional assay
[1] = target: human mutant CSF-1R L301S Y969F, full-length, on NIH 3T3 cells (human) (UniProt P07333)
[2] = target: human wildtype CSF-1R (wt CSF-1R), full-length, on cells (human) (UniProt P07333)
[3] = target: CSF-1R on cynomolgous monocytes (cynomolgous)

| Substance | % inhibition at 20 µg/ml, mutant CSF-1R cells [1] | Mutant CSF-1R IC30 (cell viability, CellTiterGlo, 3D spheroids) [1] | wtCSF-1R IC30 (cell viability, CellTiterGlo, 3D spheroids) [2] | % inhibition (of survival) = (100% - % survival), cynomolgous monocytes, 5 µg/ml antibody [3] | % survival of cynomolgous monocytes at 5 µg/ml antibody (150 ng/ml huCSF-1, CellTiterGlo) [3] | Mutant CSF-1R IC50 (cell viability, CellTiterGlo, 3D spheroids) [1] | wtCSF-1R IC50 (cell viability, CellTiterGlo, 3D spheroids) [2] |
| --- | --- | --- | --- | --- | --- | --- | --- |
| goat polyclonal anti-CSF-1R antibody ab10676 (abcam) | 0% | > 20 µg/mL | 14.2 µg/mL |  |  |  |  |
| Anti CSF-1R SC 2-4A5 (Santa Cruz Biotechnology, US) (antibody) |  | 2.56 µg/mL | 16.6 µg/mL | 69% | 31% | 10 µg/mL | 10 µg/mL |
